The results in this text go back to PMC6099927, “Aptamer Display on Diverse DNA Polyhedron Supports”.

Data set [1] has as its target T1, Plasmodium falciparum lactate dehydrogenase (PfLDH) (Plasmodium falciparum, UniProt Q27743 1-316). Nature of the data set: APTEC plate capture assay; 2x PBS binding buffer (recombinant PfLDH), 1 h, streptavidin plate coated with DNA, PBST (0.1% Tween-20) washes, absorbance 570 nm; blood: 1:1 with PBS 0.5% Triton X-100; pH and temperature not stated. As to conditions: protein: recombinant, tags: His (HisTrap purified), chain copies: 4.

The target in data set [2] is T1, Plasmodium falciparum lactate …. Nature of the data set: APTEC plate capture assay; higher signal than aptamer alone; 2x PBS binding buffer (recombinant PfLDH), 1 h, streptavidin plate coated with DNA, PBST (0.1% Tween-20) washes, absorbance 570 nm; blood: 1:1 with PBS 0.5% Triton X-100; pH and temperature not stated. The note with it: protein: recombinant, tags: His (HisTrap purified), chain copies: 4.

For data set [3] the target is unchanged. As to the kind of experiment: APTEC plate capture assay (enzyme activity of captured PfLDH), logistic fit; 2x PBS binding buffer (recombinant PfLDH), 1 h, streptavidin plate coated with DNA, PBST (0.1% Tween-20) washes, absorbance 570 nm; blood: 1:1 with PBS 0.5% Triton X-100; pH and temperature not stated. As to conditions: protein: recombinant; tags: His (HisTrap purified); chain copies: 4; label: 5' biotin; single strand.

T1 sequence (Q27743 whole entry): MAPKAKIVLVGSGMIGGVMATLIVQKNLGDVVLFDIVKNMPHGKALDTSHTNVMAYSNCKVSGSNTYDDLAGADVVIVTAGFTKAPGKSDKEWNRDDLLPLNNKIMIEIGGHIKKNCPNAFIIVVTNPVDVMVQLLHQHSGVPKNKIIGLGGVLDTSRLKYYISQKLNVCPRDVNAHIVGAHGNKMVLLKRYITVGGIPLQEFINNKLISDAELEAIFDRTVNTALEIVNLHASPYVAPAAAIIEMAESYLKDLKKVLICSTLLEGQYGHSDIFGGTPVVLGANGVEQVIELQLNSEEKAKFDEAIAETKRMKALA

B1: aptamer pentagon-based pyramid (mixed)
DNA 1: TTCGGCCGATCTGGCATAGGCTTCCCCAACGTTATCTCGCGTGGCGTACGG
DNA 2: TTGATCGGCCGTTCCGCGCGTCCTGCCCTAGACGCCCCTGGGCCC
DNA 3: TTGCCTATGCCTGGGCCCAGGGGCGTCTTGGAGTCAACAGGTCGG
DNA 4: TTCGTTGGGGATCCGACCTGTTGACTCCTCCCGTCGACCAAAGAT
DNA 5: TTCGCGAGATATATCTTTGGTCGACGGGTCTCAGCCCTGACCCCA
DNA 6: CTGGGCGGTAGAACCATAGTGACCCAGCCGTCTACTTGGGCAGGACGCGCGGATCCGTACGCCTTGGGGTCAGGGCTGAG
In the case of B1, the equilibrium dissociation constant (Kd) in data set [1] (label: 5' biotin on P2a-P2e, pentagon-based pyramid of 6 strands) was found to be 14.8 ± 0.8 nM.

B2: aptamer with double-stranded spacer (C2a/C2b) (mixed)
DNA 1: CTGGGCGGTAGAACCATAGTGACCCAGCCGTCTACTTTGGGGCCGGGCGCGCCCCGGTT
DNA 2: TTCCGGGGCGCGCCCGGCCCCA
As to B2, the binding result in data set [2] (label: 3' biotin on C2a, 20 bp spacer duplex, 5' aptamer overhang) is “binds”.

B3: aptamer with single-stranded spacer (C2a) (structured_DNA)
DNA: CTGGGCGGTAGAACCATAGTGACCCAGCCGTCTACTTTGGGGCCGGGCGCGCCCCGGTT
For B3, the binding result in data set [2] (label: 3' biotin, single strand) is listed as “binds”. CTGGGCGGTAGAACCATAGTGACCCAGCCGTCTAC (structured_DNA) [PfLDH aptamer alone (Apt)]: the equilibrium dissociation constant (Kd) in data set [3] worked out at 12.7 ± 0.71 nM.

B4: aptamer square-based pyramid (mixed)
DNA 1: TTATGTAACCGTGTCACTCCAGGTGTACTTCCTAAAATCGCGCGACCAG
DNA 2: TTCACGGTTACATTCTGTGTTGGCACGGCGTCGTCCGGGTGGCGGTT
DNA 3: TTCACCTGGAGTGTAACCGCCACCCGGACGTCGTTCGTCAAATAGTG
DNA 4: TTTTTTAGGAAGTTCACTATTTGACGAACGTGCTATGCCGCGCGCCT
DNA 5: CTGGGCGGTAGAACCATAGTGACCCAGCCGTCTACTTCGCCGTGCCAACACAGTCTGGTCGCGCGTAGGCGCGCGGCATAGC
With B4, in data set [1] (label: 5' biotin on P1a-P1d, square-based pyramid of 5 strands), the Kd was found to be 5.99 ± 0.64 nM.

B5: aptamer-tetrahedron 1 (mixed)
DNA 1: TTTTGCGGCTGGAGCCATGTCATCAGGGGCACGTCTCTAGGACGCGGCCGGGTCT
DNA 2: TTCATGGCTCCAGCCGCAATGACGGGACCGTGTGCCTGAGC
DNA 3: TTGAGACGTGCCCCTGATGTGCTCAGGCACTGCAGGGCAAA
DNA 4: CTGGGCGGTAGAACCATAGTGACCCAGCCGTCTACTTCGGTCCCGTCTAGACCCGGCCGCGTCCTTTTTGCCCTGC
Regarding B5, in data set [1] (label: 5' biotin on Ta, T1b, T1c, tetrahedron of 4 strands, height 2.65 nm), the Kd was determined as 1.22 ± 0.13 nM.

B6: aptamer-tetrahedron 3 (mixed)
DNA 1: TTTTGCGGCTGGAGCCATGTCATCAGGGGCACGTCTCTAGGACGCGGCCGGGTCT
DNA 2: TTCATGGCTCCAGCCGCAATTGATCATTGAGTGTCGGTGGCGATGTCTCCCCGATAAAGCGTATGTTATAAGTCT
DNA 3: TTGAGACGTGCCCCTGATGTAGACTTATAACATACGCTTTATCGGGGTCCGGAGCCATCACACCTGGATCAGGAC
DNA 4: CTGGGCGGTAGAACCATAGTGACCCAGCCGTCTACTTGACATCGCCACCGACACTCAATGATCATAGACCCGGCCGCGTCCTTGTCCTGATCCAGGTGTGATGGCTCCGG
With B6, the Kd in data set [1] (label: 5' biotin on Ta, T3b, T3c, tetrahedron of 4 strands, height 10.55 nm) came out at 1.61 ± 0.1 nM.

B7: aptamer-tetrahedron 2 (mixed)
DNA 1: TTTTGCGGCTGGAGCCATGTCATCAGGGGCACGTCTCTAGGACGCGGCCGGGTCT
DNA 2: TTCATGGCTCCAGCCGCAATTATCTAGCGATCTCACCTCGTCAAGGGTAAGCCCG
DNA 3: TTGAGACGTGCCCCTGATGTCGGGCTTACCCTTGACGTGTGGTAATTGTTGTGTA
DNA 4: CTGGGCGGTAGAACCATAGTGACCCAGCCGTCTACTTGGTGAGATCGCTAGATATAGACCCGGCCGCGTCCTTTACACAACAATTACCAC
Turning to B7, the equilibrium dissociation constant (Kd) in data set [1] (label: 5' biotin on Ta, T2b, T2c, tetrahedron of 4 strands, height 6.72 nm) worked out at 2.09 ± 0.15 nM.
